First the molecules themselves.
B1: Phosphatidylinositol-binding clathrin assembly protein (Rattus norvegicus (Rat)), O55012 (parent)
chain: MSGQSLTDRITAAQHSVTGSAVSKTVCKATTHEIMGPKKKHLDYLIQCTNEMNVNIPQLADSLFERTTNSSWVVVFKSLITTHHLMVYGNERFIQYLASRNTLFNLSNFLDKSGLQGYDMSTFIRRYSRYLNEKAVSYRQVAFDFTKVKRGADGVMRTMNTEKLLKTVPIIQNQMDALLDFNVNSNELTNGVINAAFMLLFKDAIRLFAAYNEGIINLLEKYFDMKKNQCKEGLDIYKKFLTRMTRISEFLKVAEQVGIDRGDIPDLSQAPSSLLDALEQHLASLEGKKIKDSTAASRATTLSNAVSSLASTGLSLTKVDEREKQAALEEEQARLKALKEQRLKELAKKPHTSLTTAASPVSTSAGGIMTAPAIDIFSTPSSSNSTSKLPNDLLDLQQPTFHPSVHAMSAAPQVASTWGDAVDDAIPSLNPFLTKSSGDVHLPISSDVSTFTTRTPTHEMFVGFSPSPVTQPHPSAGLNVDFESVFGNKSTNVAVDSGGGLLKPTVASQNQSLPVAKLPPNKLVSDDLDSSLANLVGNLGIGNGTTKNDVSCSQPGEKKLTGGSNWQPKVAPTTAWSAATMAPPVMAYPATTPTGMIGYGIPPQMGSVPVMTQPTLIYSQPVMRPPNPFGPVPGAQIQFM
partner: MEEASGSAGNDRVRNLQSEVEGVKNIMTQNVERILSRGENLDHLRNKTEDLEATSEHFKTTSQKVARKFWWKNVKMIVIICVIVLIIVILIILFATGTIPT
B2: Vesicle-associated membrane protein 8 (Mus musculus), O70404 (parent)
chain: B1 partner
partner: B1 chain

In one assay the parent is B1. The following applies: with vamp8_mouse Vamp8, O70404.
Regarding I247D, the “effect of a mutation on the interaction” value is recorded as “disrupting interaction”. On to D224K, for which the “effect of a mutation on the interaction” value was “disrupting interaction”. Same read-out and setting: the result for F240A reads “disrupting interaction”; that for L251S, “disrupting interaction”; that for L219S, “disrupting interaction”.

Variants of B1 are the subject of another assay. To be noted: with vamp8_mouse Vamp8, O70404. This is another data set of the same source.
M244K: the “effect of a mutation on the interaction” value was “disrupting interaction”.

The variants in another assay derive from B2. The following applies: with pical_rat Picalm, O55012.
As to MEEASGSAGNDRVRNPQSEVEGPKNIMTQNVERILSRGENLDHLRNKTEDLEATSEHFKTTSQKVARKFWWKNVKMIVIICVIVLIIVILIILFATGTIPT [L16P;V23P], the “effect of a mutation on the interaction” value is “disrupting interaction”. Still for that read-out and setting: the result for MEEASGSAGNDRVRNLQSEVEGVANIATQNVERILSRGENLDHLRNKTEDLEATSEHFKTTSQKVARKFWWKNVKMIVIICVIVLIIVILIILFATGTIPT [K24A;M27A] reads “disrupting interaction”.

The values above are taken from IntAct's records for PubMed 22118466.
